Laboratory results as given in US12344890B2, “Process for cognate nucleotide detection in a nucleic acid sequencing workflow” (priority 2017, dated 2025).

Tests used:
[1] = target: T1, Therminator™ DNA polymerase (Thermococcus sp., UniProt Q56366, A485L/D141A/E143A); type: biochemical, Thermococcus species 9° N; conditions: incorporation assay, averaged from three trials
T1 construct: purchased New England BioLabs
Description: Each nucleotide included a fluorescent moiety constructed on a Cy-5 scaffold. […] In the case of the labeled dUTP analog, the comparison was against dTTP.

[2] = test system: Nc1nc2c(ncn2[C@H]2C[C@H](O)[C@@H](COP(=O)(O)OP(=O)(O)OP(=O)(O)O)O2)c(=O)[nH]1; test: purified protein, by the assay type; conditions: other: incorporation assay, Therminator DNA polymerase; averaged from three trials
[3] = test system: Nc1ncnc2c1ncn2[C@H]1C[C@H](O)[C@@H](COP(=O)(O)OP(=O)(O)OP(=O)(O)O)O1; test: purified protein, by the assay type; conditions: other: incorporation assay, Therminator DNA polymerase; averaged from three trials
[4] = test system: Nc1ccn([C@H]2C[C@H](O)[C@@H](COP(=O)(O)OP(=O)(O)OP(=O)(O)O)O2)c(=O)n1; test: purified protein, by the assay type; conditions: other: incorporation assay, Therminator DNA polymerase; averaged from three trials

T1 sequence (Q56366 whole entry D141A/E143A/A485L): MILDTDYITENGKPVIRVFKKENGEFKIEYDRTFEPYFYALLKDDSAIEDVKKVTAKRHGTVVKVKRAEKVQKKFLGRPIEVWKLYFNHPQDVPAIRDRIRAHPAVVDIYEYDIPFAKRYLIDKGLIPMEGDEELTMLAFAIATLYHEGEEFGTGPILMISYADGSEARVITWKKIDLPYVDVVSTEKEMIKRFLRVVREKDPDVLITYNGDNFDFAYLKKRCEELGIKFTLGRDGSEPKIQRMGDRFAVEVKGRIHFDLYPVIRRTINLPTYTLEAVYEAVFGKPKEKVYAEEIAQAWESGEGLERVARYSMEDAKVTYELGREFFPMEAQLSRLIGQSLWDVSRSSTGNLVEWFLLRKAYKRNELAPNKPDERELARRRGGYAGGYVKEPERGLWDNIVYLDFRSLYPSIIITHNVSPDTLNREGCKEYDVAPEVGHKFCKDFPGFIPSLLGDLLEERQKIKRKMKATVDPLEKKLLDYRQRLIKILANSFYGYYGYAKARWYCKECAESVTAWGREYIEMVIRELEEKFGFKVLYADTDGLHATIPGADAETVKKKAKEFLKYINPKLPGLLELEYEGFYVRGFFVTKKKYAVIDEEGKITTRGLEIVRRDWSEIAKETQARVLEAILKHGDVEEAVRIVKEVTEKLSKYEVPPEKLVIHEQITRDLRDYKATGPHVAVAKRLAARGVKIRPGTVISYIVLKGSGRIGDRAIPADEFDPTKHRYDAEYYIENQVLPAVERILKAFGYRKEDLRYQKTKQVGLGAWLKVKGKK

Compound | Km [1] | Km [2] | Km [3] | Km [4]
Cc1cn([C@H]2C[C@H](O)[C@@H](COP(=O)(O)OP(=O)(O)OP(=O)(O)O)O2)c(=O)[nH]c1=O [dTTP, 2′-deoxythymidine-5′-triphosphate] | 920 nM |  |  | 
Therminator™ DNA polymerase (Thermococcus sp. 9oN-7; A485L/D141A/E143A) |  | 0.23 µM | 0.05 µM | 0.82 µM
